Measured values reported in patent US20140072986, “AMYLOID PROTEIN OLIGOMER-BINDING APTAMER” (NATIONAL UNIVERSITY CORPORATION TOKYO UNIVERSITY OF …, published 2014).

Columns and labels:
[1] = biological target: T1, amyloid beta 1-40 oligomer (UniProt P05067 P05067:672-711); assay: ELONA; oligomer immobilised on plate, room temp; conditions: tags: Peptide Institute peptide, oligomerised from HFIP/water, chain copies: oligomer (stated), label: 5'-FITC
Protocol: (§1) 100 μL of 100 μM of an Aβ oligomer solution or PBS buffer was added to each well of MaxiSorp (registered trademark) plate (Nunc Co., Ltd) and incubated at 37° C. for 1.5 hours to immobilize the Aβ oligomer on the wells. Blocking of each well was performed with a 2% (w/v) BSA solution (TBS-T: 25 mM Tris-HCl, pH 7.4, 0.15M NaCl, 0.005M KCl, 0.05% Tween-20) to produce an Aβ oligomer-immobilized plate.
(§2) To each well of the Aβ oligomer-immobilized plate was added the each FITC-labeled aptamer prepared in a concentration of 1 nM, 2.5 nM, or 10 nM, and incubation at room temperature for 60 minutes was carried out. After washing the wells, an HRP-modified anti-FITC antibody (Cosmo BiO Co., Ltd) was added to the wells and incubation was performed at room temperature. After washing the wells, an HRP-luminescent substrate was added to detect the binding of each aptamer to the oligomer by chemiluminescence. FIG. 5 illustrates the results.
Further, using the 10T dimer and the original aptamer T-SO530 in a concentration of 1 nM, 2.5 nM, 10 nM, 20 nM, or 60 nM, an experiment for binding the aptamers to the Aβ oligomer was performed in the same manner as above. Based on the obtained binding signals, curve fitting was performed using GraphPad Prism (MDF Co., Ltd.) to calculate a binding dissociation constant (Kd).

[2] = biological target: T1, amyloid beta 1-40 oligomer; assay: aptamer blotting, 500 nM; conditions: tags: Peptide Institute peptide; oligomerised from HFIP/water; chain copies: oligomer (stated); label: 5'-FITC; G4
Protocol: (§3) α-synuclein monomer, oligomer, and fibril (1 μg) was immobilized on a nitrocellulose membrane and dried. Then, the membrane was incubated with 4% skim milk prepared using TBS-T (25 mM Tris-HCl, pH 7.4, 0.15 M NaCl, 0.005 M KCl, 0.05% Tween-20) at room temperature for 1 hour for blocking. After that, the membrane was washed with a sufficient amount of TBS-T (2 min×twice and 10 min×one time). The obtained plural oligonucleotides modified with FITC at the 5′ end (f.c. 100 nM) were folded, and the DNA and the membrane were incubated at room temperature for 1 hour. Next, the membrane was washed with a sufficient amount of TBS-T (2 min×twice, 10 min×one time, and 5 min×twice). After that, an HRP-modified anti-FITC antibody diluted to 1000 times with TBS-T and the membrane were incubated at room temperature for 1 hour and the membrane was washed with a sufficient amount of TBS-T (2 min×twice, 10 min×one time, and 5 min×twice). ECL Plus Western blotting detection reagents (GE Healthcare Ltd.) were added to the membrane, and HRP chemiluminescence was detected by TYPHOON 8600 to observe the binding of the DNA to the protein.
Spot intensities of portions with the immobilized α-Syn oligomer were analyzed to create a calibration curve, whereby an oligomer concentration included in the Aβ₁₋₄₀ oligomer sample was roughly estimated. After that, the Aβ₁₋₄₀ oligomer was immobilized on a nitrocellulose membrane in such a manner that the A11 has the same level of spot intensity, and aptamer blotting was performed using 500 nM of each aptamer. As a control, the A11 was used to perform the same experiment.

C-reactive protein (CRP) = biological target: T2, C-reactive protein (CRP) (UniProt P02741 P02741:19-224); assay: aptamer blotting, 5 pmol protein; conditions: tags: Polyscience Corp; chain copies: 5; label: 5'-FITC; G4
T2 sequence: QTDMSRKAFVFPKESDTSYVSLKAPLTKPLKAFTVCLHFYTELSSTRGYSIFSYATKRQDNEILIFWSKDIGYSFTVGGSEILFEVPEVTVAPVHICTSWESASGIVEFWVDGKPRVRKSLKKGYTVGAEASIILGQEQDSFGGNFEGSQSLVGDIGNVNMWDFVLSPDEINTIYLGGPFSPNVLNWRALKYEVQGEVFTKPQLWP
Protocol: as §3
(§4) On the same nitrocellulose membrane, 5 pmol of each of glucose dehydrogenase (PQQGDH) dependent on the coenzyme PQQ, a C-reactive protein (CRP) (Polyscience Corp.), luciferase, and an IgG antibody (Sigma Aldrich Company), and 0.5 μg of α-synuclein oligomer were immobilized. Using the membrane, specificity evaluation was performed by an aptamer blotting method.

[3] = biological target: PQQ-dependent glucose dehydrogenase (PQQGDH) (UniProt P13650 P13650:25-478); assay: aptamer blotting, 5 pmol protein; conditions: label: 5'-FITC; G4
Protocol: as §3, §4

alpha-synuclein oligomer [4] = biological target: T3, alpha-synuclein oligomer (UniProt P37840 P37840:1-140); assay: aptamer blotting
alpha-synuclein oligomer [5] = biological target: T3, alpha-synuclein oligomer; assay: aptamer blotting; binding improved over T-SO504
alpha-synuclein oligomer [6] = biological target: T3, alpha-synuclein oligomer; assay: aptamer blotting; did not retain binding of T-SO504
[7] = biological target: T1, amyloid beta 1-40 oligomer; assay: ELONA; signal from 1 nM versus 10 nM for T-SO530; also strong spot in blotting FIG. 6; conditions: tags: Peptide Institute peptide; oligomerised from HFIP/water; chain copies: oligomer (stated); label: 5'-FITC
Protocol: as §1, §2

T1 sequence (P05067 672-711, one chain of several): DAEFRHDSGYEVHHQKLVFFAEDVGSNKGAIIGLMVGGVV
Sequence of PQQ-dependent glucose dehydrogenase (PQQGDH) (P13650 25-478, one chain of several): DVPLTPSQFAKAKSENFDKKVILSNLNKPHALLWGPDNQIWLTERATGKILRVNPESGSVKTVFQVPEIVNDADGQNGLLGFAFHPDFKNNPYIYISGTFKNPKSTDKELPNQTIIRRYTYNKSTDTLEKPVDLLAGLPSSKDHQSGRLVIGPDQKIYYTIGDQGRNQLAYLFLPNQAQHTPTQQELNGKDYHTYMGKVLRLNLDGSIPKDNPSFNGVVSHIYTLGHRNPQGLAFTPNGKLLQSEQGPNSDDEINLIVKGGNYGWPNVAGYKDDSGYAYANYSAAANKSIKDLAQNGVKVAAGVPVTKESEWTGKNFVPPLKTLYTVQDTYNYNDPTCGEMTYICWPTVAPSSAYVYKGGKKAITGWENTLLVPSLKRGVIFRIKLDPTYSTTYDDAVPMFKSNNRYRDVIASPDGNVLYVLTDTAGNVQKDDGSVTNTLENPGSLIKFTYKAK

B1: 10T dimer (structured_DNA)
DNA: TTTTTGGTGCGGCGGGACTAGTGGGTGTGTTTTTTTTTTGGTGCGGCGGGACTAGTGGGTGTG
Kd [1]: 1.44 nM

TTTTTGGTGCGGCGGGACTAGTGGGTGTG (structured_DNA) [tT-SO530]
Kd ([1]; G4): 9.03 nM

GGTGGCTGGAGGGGGCGCGAACG (structured_DNA) [T-SO517]
binding result [2]: binds
binding result (C-reactive protein (CRP)): no binding
binding result [3]: no binding

GGGTCGGCTGTCCGTGGGTGGGGA (structured_DNA) [T-SO606]
binding result [2]: binds
binding result (C-reactive protein (CRP)): no binding
binding result [3]: no binding

CGAGGGGCGTCTGGGAGTGGTCGG (structured_DNA) [T-SO554]
binding result [2]: binds

GGTGCGGCGGGACTAGTGGGTGTG (structured_DNA) [T-SO530]
binding result [2]: binds

GCGTGTGGGGCTTGGGCAGCTGGG (structured_DNA) [T-SO552]
binding result [2]: binds

CAGGGGTGGGCAAAGGGCGGTGGTG (structured_DNA) [T-SO504]
binding result [2]: binds

GCCTGTGGTGTTGGGGCGGGTGCG (structured_DNA) [T-SO508]
binding result [2]: binds

GCGGTAGGGTGTGAGCGGAAGGGG (structured_DNA) [T-SO602]
binding result [2]: binds

TTTTTCAGGGGTGGGCAAAGGGCGGTGGTG (structured_DNA) [tT-SO504]
binding result (alpha-synuclein oligomer [4]): binds

B2: 504W (structured_DNA)
DNA: AAAAACAGGGGTGGGCAAAGGGCGGTGGTGTTTTTCAGGGGTGGGCAAAGGGCGGTGGTG
binding result (alpha-synuclein oligomer [5]): binds

AAAAAGGGTGGGCAAAGGGAA (ssDNA) [504M1]
binding result (alpha-synuclein oligomer [6]): no binding

AAAAAGGGCAAAGGGAA (ssDNA) [504M2]
binding result (alpha-synuclein oligomer [6]): no binding

B3: 5T dimer (structured_DNA)
DNA: TTTTTGGTGCGGCGGGACTAGTGGGTGTGTTTTTGGTGCGGCGGGACTAGTGGGTGTG
binding result [7]: binds
